Consider 3 substances from paper PMC5240640.

Assay [1] has as its target His-tagged FcγRI (R&D Systems, cat no. 1257-FC) (UniProt P12314). Description: AlphaScreen or HTRF; competitive: biotinylated human IgG1 (200 ng/mL) on streptavidin donor beads, His-tagged FcγR (200 ng/mL) on nickel chelate acceptor beads, unlabeled competitor antibody in serial dilutions; 1xPBS, 0.05% BSA, 0.01% Tween 20, pH 7.2; RT 1 h; IC50 interpolated at 50% maximal activity. A general note: In Alpha technology, singlet oxygen from a donor bead excites a nearby acceptor bead.

Assay [2] concerns the target His-tagged FcγRIIIa (R&D Systems, cat no. 4325-FC) (UniProt P08637). The description is as above.
Assay [3] has as its target His-tagged FcγRIIa (R&D Systems, cat no. 1330-CD/CF) (UniProt P12318). The description is as above.
The target in assay [4] is His-tagged FcγRIIIa (R&D Systems, cat no. 4325-FC) (UniProt P08637).
For assay [5] the target is unchanged. The source holds these as a separate data set.

Usually IC50 stands for the point on the concentration scale where inhibition reaches its midpoint. For the substance IgG1 isotype - NF (antibody), the IC50 in assay [1] is 8.7 nM; in assay [2], 32.4 nM; in assay [3] it was 1270 nM.

In assay [4], “JNJ-61186372 - LF (EGFR x c-Met bispecific antibody, low fucose)” showed an ADCC against H1975 cells with donor PBMCs, EC20 (antibody concentration needed to elicit 20% lysis) of 0.0015 nM. In assay [4], this substance gave an ADCC against H1975 cells with donor PBMCs, Emax (% compared to complete lysis) of 59%. The IC50 in assay [1] amounted to 9.2 nM; in assay [2], 10 nM; in assay [3], 946 nM. For the same substance, the ADCC against HCC-827 cells with donor PBMCs, EC20 (antibody concentration needed to elicit 20% lysis) in assay [5] is 0.0376 nM. Moreover, the ADCC against HCC-827 cells with donor PBMCs, Emax (% compared to complete lysis) in assay [5] stood at 31%.

In assay [4], “JNJ-61186372 - NF (EGFR x c-Met bispecific antibody, normal fucose)” gave an ADCC against H1975 cells with donor PBMCs, EC20 (antibody concentration needed to elicit 20% lysis) of 0.15 nM. Further, the ADCC against H1975 cells with donor PBMCs, Emax (% compared to complete lysis) in assay [4] came to 40%. For the same substance, the results for the IC50 in assay [1], in assay [2] and in assay [3] were 11.6 nM, 38.1 nM and 1080 nM, respectively. The ADCC against HCC-827 cells with donor PBMCs, EC20 (antibody concentration needed to elicit 20% lysis) in assay [5] was 0.645 nM. Also, the ADCC against HCC-827 cells with donor PBMCs, Emax (% compared to complete lysis) in assay [5] was 30%.
